In this series the test system is Saccharomyces cerevisiae. Nature of the series: protein stability index of tFT-peptide fusion (C-terminal peptide) (PSI (0-1 scale)); higher = more stable (slower turnover). The note with it: temperature: 30 C. On the procedure:
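MPS profiling in S. cerevisiae of the yeast C-terminome library: the last 12 aa of each annotated ORF are fused to the C-terminus of a sfGFP-mCherry timer, after a GGGS linker. Cells are FACS-sorted into 8 mCherry/sfGFP bins and deep-sequenced. PSI runs from 0 (unstable) to 1 (stable); wild type and das1Δ backgrounds, two technical replicates each.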

Setting [1] is: genetic background: das1 deletion.

± gives the standard deviation of the averaged measurements.

The record followed here is the supplement of paper PMC10724198.

GVRRSVRLNNRV [MCM4 C-terminal 12 aa]: the protein stability index by setting is: under setting [1], 0.699 ± 0.019; (genetic background: wild type) 0.681 ± 0.015.
In the same order, the values of GVSFHVQVTMPQ [TRS33 C-terminal 12 aa] are 0.711 ± 0.023 and 0.704 ± 0.049.
In the same order, the values of GWEVLSVYSFTR [MTQ2 C-terminal 12 aa] are 0.727 ± 0.042 and 0.737 ± 0.098.
Take GWFEEVRDHKRH [SKY1 C-terminal 12 aa]: the protein stability index amounted to 0.731 ± 0.017 under setting [1] and 0.753 ± 0.022 (genetic background: wild type).
As for GWPLKDGNKKRK [OTO1 C-terminal 12 aa], the protein stability index under setting [1] stood at 0.682 ± 0.025 and the protein stability index (genetic background: wild type) was found to be 0.706 ± 0.065.
Taken in the same sequence, the figures for GYCFEFTLYNRK [DFR1 C-terminal 12 aa] were 0.7243 ± 0.0021 and 0.688 ± 0.013.
“GYKPIILYHVIH [YDL025W-A C-terminal 12 aa]” registered a protein stability index under setting [1] of 0.691 ± 0.024 and a protein stability index (genetic background: wild type) of 0.598 ± 0.025.
Take GYYQRRNKRKRA [UTP20 C-terminal 12 aa]: the protein stability index runs as follows: under setting [1], 0.749 ± 0.012; (genetic background: wild type) 0.69 ± 0.046.
In the same order, the values of HCGARLTVIPKK [YER137C C-terminal 12 aa] are 0.693 ± 0.016 and 0.688 ± 0.028.
Taken in the same sequence, the figures for HELIKKRWDDRK [NCE101 C-terminal 12 aa] were 0.712 ± 0.016 and 0.679 ± 0.018.
In the same order, the values of HETFDFRNLKLR [YER121W C-terminal 12 aa] are 0.701 ± 0.043 and 0.698 ± 0.024.
For HETMVNGSKRRL [DIF1 C-terminal 12 aa], the protein stability index under setting [1] was 0.686 ± 0.014 and the protein stability index (genetic background: wild type) was determined as 0.639 ± 0.014.
Regarding HEYVTINGDYRS [ARG7 C-terminal 12 aa], the protein stability index is, setting by setting: under setting [1], 0.679 ± 0.017; (genetic background: wild type) 0.702 ± 0.032.
Taken in the same sequence, the figures for HFASSLVSFLSK [ICT1 C-terminal 12 aa] were 0.727 ± 0.028 and 0.7183 ± 0.0037.
As for HIDIPDFAKWDI [SUL2 C-terminal 12 aa], the protein stability index by setting is: under setting [1], 0.727 ± 0.013; (genetic background: wild type) 0.719 ± 0.009.
In the same order, the values of HLYSTLLFHSVN [RRG8 C-terminal 12 aa] are 0.728 ± 0.013 and 0.543 ± 0.033.
In the same order, the values of HNDNSGTVLGTA [RBD2 C-terminal 12 aa] are 0.7 ± 0.017 and 0.728 ± 0.032.
As for HNGKNKNRNSKK [MPP6 C-terminal 12 aa], the protein stability index runs as follows: under setting [1], 0.691 ± 0.03; (genetic background: wild type) 0.669 ± 0.016.
Taken in the same sequence, the figures for HPFLLWQGQVFF [YCR022C C-terminal 12 aa] were 0.729 ± 0.012 and 0.6995 ± 0.0021.
Taken in the same sequence, the figures for HQDSAKYTHYYL [YER158C C-terminal 12 aa] were 0.696 ± 0.016 and 0.652 ± 0.0081.
In the same order, the values of HTMENIFAGKLD [CUE4 C-terminal 12 aa] are 0.7177 ± 0.0019 and 0.69 ± 0.011.
On to IAKRFAKALGRS [ARN2 C-terminal 12 aa], for which the protein stability index reads like this: under setting [1], 0.711 ± 0.0084; (genetic background: wild type) 0.695 ± 0.016.
In the same order, the values of IAQNVSRSSQQV [YMD8 C-terminal 12 aa] are 0.6875 ± 0.00089 and 0.731 ± 0.016.
In the same order, the values of ICKALVKQDLGL [LAP2 C-terminal 12 aa] are 0.6972 ± 0.002 and 0.657 ± 0.035.
In the same order, the values of IDIPISVRQVTK [BUL1 C-terminal 12 aa] are 0.707 ± 0.0073 and 0.696 ± 0.013.
On to IDKFLDHIGKSQ [FBP1 C-terminal 12 aa], for which the protein stability index runs as follows: under setting [1], 0.698 ± 0.025; (genetic background: wild type) 0.703 ± 0.012.
In the same order, the values of IDSIDDLVDSDT [NPP1 C-terminal 12 aa] are 0.6907 ± 0.0066 and 0.685 ± 0.015.
Taken in the same sequence, the figures for IEALYKLVEEKM [NQM1 C-terminal 12 aa] were 0.701 ± 0.017 and 0.6797 ± 0.0027.
In the same order, the values of IEKSKSDRRKLL [YHR022C C-terminal 12 aa] are 0.728 ± 0.063 and 0.2695 ± 0.0021.
Take IELQLTEIPKHK [FIN1 C-terminal 12 aa]: the protein stability index runs as follows: under setting [1], 0.701 ± 0.022; (genetic background: wild type) 0.727 ± 0.085.
Taken in the same sequence, the figures for IGELLEGIRMSI [BIT2 C-terminal 12 aa] were 0.694 ± 0.012 and 0.729 ± 0.091.
As to IGPLAFLVFKTA [DYN2 C-terminal 12 aa], the protein stability index stood at 0.67 ± 0.02 under setting [1] and 0.18 ± 0.011 (genetic background: wild type).
Take IHENEESNENEG [RQC1 C-terminal 12 aa]: the protein stability index runs as follows: under setting [1], 0.702 ± 0.0099; (genetic background: wild type) 0.663 ± 0.011.
In the same order, the values of IHYLLHIERERK [YOR385W C-terminal 12 aa] are 0.683 ± 0.037 and 0.681 ± 0.014.
Taken in the same sequence, the figures for IIRSEKKKKEEQ [YBR292C C-terminal 12 aa] were 0.748 ± 0.041 and 0.659 ± 0.039.
IKETIQRLTDDR [GMC2 C-terminal 12 aa]: the protein stability index reads like this: under setting [1], 0.661 ± 0.018; (genetic background: wild type) 0.676 ± 0.015.
Taken in the same sequence, the figures for “IKIRIYSPRSIS [YDL240C-A C-terminal 12 aa]” were 0.715 ± 0.017 and 0.519 ± 0.021.
In the same order, the values of IKKYNITSPFLD [NSE4 C-terminal 12 aa] are 0.696 ± 0.022 and 0.686 ± 0.004.
Taken in the same sequence, the figures for IKRRSNVGVVML [NMT1 C-terminal 12 aa] were 0.6647 ± 0.003 and 0.6363 ± 0.0032.
Consider IKSVHVDLSLDK [ALD3 C-terminal 12 aa], for which the protein stability index is, setting by setting: under setting [1], 0.717 ± 0.022; (genetic background: wild type) 0.704 ± 0.043.
In the same order, the values of ILHERNIPLEKI [TPT1 C-terminal 12 aa] are 0.709 ± 0.021 and 0.701 ± 0.048.
Turning to ILIRKKLKAENI [OPY1 C-terminal 12 aa], the protein stability index is, setting by setting: under setting [1], 0.677 ± 0.021; (genetic background: wild type) 0.646 ± 0.053.
On to ILLHLEYAAAYS [STN1 C-terminal 12 aa], for which the protein stability index reads like this: under setting [1], 0.521 ± 0.033; (genetic background: wild type) 0.552 ± 0.02.
As for INILPVRKKKKV [SAS4 C-terminal 12 aa], the protein stability index reads like this: under setting [1], 0.705 ± 0.024; (genetic background: wild type) 0.685 ± 0.036.
In the same order, the values of INKASVKFFFFA [YJL119C C-terminal 12 aa] are 0.637 ± 0.0095 and 0.227 ± 0.0039.
In the same order, the values of INNTDITLYNDV [YPL068C C-terminal 12 aa] are 0.707 ± 0.019 and 0.696 ± 0.056.
In the same order, the values of IQELVNTIRELQ [YPL077C C-terminal 12 aa] are 0.69 ± 0.018 and 0.642 ± 0.0078.
Take IQISDVSMSPSL [PEX31 C-terminal 12 aa]: the protein stability index reads like this: under setting [1], 0.6811 ± 0.00011; (genetic background: wild type) 0.717 ± 0.019.
In the same order, the values of IQKDSMVHPGKK [VAC7 C-terminal 12 aa] are 0.6694 ± 0.0052 and 0.663 ± 0.034.
In the same order, the values of IQQTNSFLREII [YDL211C C-terminal 12 aa] are 0.692 ± 0.0098 and 0.7056 ± 0.0041.
For IRLLTYLLRKIE [YLR230W C-terminal 12 aa], the protein stability index is, setting by setting: under setting [1], 0.654 ± 0.033; (genetic background: wild type) 0.351 ± 0.023.
Taken in the same sequence, the figures for ISFDLCGKQNFQ [MTC7 C-terminal 12 aa] were 0.705 ± 0.056 and 0.719 ± 0.044.
As for ISIALEGHTLFL [PDE1 C-terminal 12 aa], the protein stability index runs as follows: under setting [1], 0.715 ± 0.02; (genetic background: wild type) 0.70608 ± 0.00038.
For the sequence ISIEELAQYLKK [RIB3 C-terminal 12 aa], the protein stability index was determined as 0.70628 ± 0.00065 under setting [1] and 0.672 ± 0.049 (genetic background: wild type).
Taken in the same sequence, the figures for ISKLKGISKPSP [MDS3 C-terminal 12 aa] were 0.682 ± 0.014 and 0.687 ± 0.023.
In the same order, the values of ISNLPECLGNLC [ANR2 C-terminal 12 aa] are 0.6968 ± 0.0047 and 0.6926 ± 0.006.
In the same order, the values of ITKSSNKFVNNV [YNL043C C-terminal 12 aa] are 0.665 ± 0.022 and 0.736 ± 0.091.
ITLESGSYKFQD [SRP40 C-terminal 12 aa] returned a protein stability index under setting [1] of 0.695 ± 0.025 and a protein stability index (genetic background: wild type) of 0.639 ± 0.0026.
Taken in the same sequence, the figures for ITSKRKAELLLK [DIS3 C-terminal 12 aa] were 0.723 ± 0.062 and 0.7544 ± 0.007.
With IVRPLELKYFGR [FCY22 C-terminal 12 aa], the protein stability index turned out to be 0.7236 ± 0.0033 under setting [1] and 0.688 ± 0.04 (genetic background: wild type).
For IWVVDSLGSLVG [YPL142C C-terminal 12 aa], the protein stability index turned out to be 0.6847 ± 0.00084 under setting [1] and 0.699 ± 0.037 (genetic background: wild type).
In the same order, the values of IYIQTPINDFKS [SLM1 C-terminal 12 aa] are 0.705 ± 0.031 and 0.678 ± 0.013.
Taken in the same sequence, the figures for IYKEKYMKQGPK [DSF2 C-terminal 12 aa] were 0.701 ± 0.071 and 0.701 ± 0.084.
Take IYYMEQMLGKTQ [HSK3 C-terminal 12 aa]: the protein stability index is, setting by setting: under setting [1], 0.696 ± 0.038; (genetic background: wild type) 0.696 ± 0.024.
In the same order, the values of KALNEIFMITND [PXR1 C-terminal 12 aa] are 0.723 ± 0.013 and 0.763 ± 0.033.
In the same order, the values of KAPKSPEVIEID [UFD1 C-terminal 12 aa] are 0.6978 ± 0.0035 and 0.684 ± 0.027.
Taken in the same sequence, the figures for KARPFKCSDKKQ [MZM1 C-terminal 12 aa] were 0.718 ± 0.016 and 0.72792 ± 0.00048.
